# Legend:
# [1] = biological target: specific IgE on basophils from the blood of allergic patient; assay: cell-based or functional assay
# [2] = biological target: IgE antibodies of the allergic patient serum pool We 6/97; assay: EAST inhibition, serum pool We 6/97
# [3] = biological target: IgE antibodies of the allergic patient serum pool Bor 18/100 (20 donors); assay: EAST inhibition, serum pool Bor 18/100
# [4] = biological target: IgE antibodies of the individual allergic patient serum II/3; assay: EAST inhibition, individual serum II/3
# [5] = biological target: IgE antibodies of the individual allergic patient serum II/12; assay: EAST inhibition, individual serum II/12
# [6] = biological target: IgE antibodies of the individual allergic patient serum II/17; assay: EAST inhibition, individual serum II/17
Binder,"concentration required to bring about a 30% histamine release from basophils, against wild type rPh1 p 5b [1] [fold higher]",IC50 [2] [nM],allergenic potency (Prel) at 25% inhibition (relative to native Phl p 5b) [2],allergenic potency (Prel) at 50% inhibition (relative to native Phl p 5b) [2],inhibition value (inhibitor concentration at 25% inhibition) [2] [mol/L],IC50 [3] [nM],allergenic potency (Prel) at 25% inhibition (relative to native Phl p 5b) [3],allergenic potency (Prel) at 50% inhibition (relative to native Phl p 5b) [3],inhibition value (inhibitor concentration at 25% inhibition) [3] [mol/L],IC50 [4] [nM],allergenic potency (Prel) at 25% inhibition (relative to native Phl p 5b) [4],allergenic potency (Prel) at 50% inhibition (relative to native Phl p 5b) [4],inhibition value (inhibitor concentration at 25% inhibition) [4] [mol/L],allergenic potency (Prel) at 25% inhibition (relative to native Phl p 5b) [5],allergenic potency (Prel) at 50% inhibition (relative to native Phl p 5b) [5],inhibition value (inhibitor concentration at 25% inhibition) [5] [mol/L],IC50 [6] [nM],allergenic potency (Prel) at 25% inhibition (relative to native Phl p 5b) [6],allergenic potency (Prel) at 50% inhibition (relative to native Phl p 5b) [6],inhibition value (inhibitor concentration at 25% inhibition) [6] [mol/L],other results
"rPhl p 5b deletion mutant DM1 (deletion K50-P132, D49L) (protein) ADAGYAPATPAAAGAAAGKATTEEQKLIEDINVGFKAAVAAAASVPAALAGELQIIDKIDAAFKVAATAAATAPADDKFTVFEAAFNKAIKESTGGAYDTYKCIPSLEAAVKQAYAATVAAAPQVKYAVFEAALTKAITAMSEVQKVSQPATGAATVAAGAATTAAGAASGAATVAAGGYKV",20,17000,0.022,0.0004,2.3e-08,28,0.039,0.0015,8.6e-09,17,0.042,0.0035,1.2e-08,3.4e-05,1e-10,1.5e-05,2,0.033,0.001,6.5e-09,–
recombinant Phl p 5b (wild type) (protein) ADAGYAPATPAAAGAAAGKATTEEQKLIEDINVGFKAAVAAAASVPAADKFKTFEAAFTSSSKAAAAKAPGLVPKLDAAYSVAYKAAVGATPEAKFDSFVASLTEALRVIAGALEVHAVKPVTEEPGMAKIPAGELQIIDKIDAAFKVAATAAATAPADDKFTVFEAAFNKAIKESTGGAYDTYKCIPSLEAAVKQAYAATVAAAPQVKYAVFEAALTKAITAMSEVQKVSQPATGAATVAAGAATTAAGAASGAATVAAGGYKV,–,1400,1.7,0.44,3e-10,5,1.71,0.841,2e-10,14,0.903,0.419,5.6e-10,0.597,0.093,8.7e-10,4.7,1.04,0.545,2.1e-10,IC50 [5]: 73 nM
"rPhl p 5b deletion mutant DM2 (deletion F51-G178, D49L, K50A) (protein) ADAGYAPATPAAAGAAAGKATTEEQKLIEDINVGFKAAVAAAASVPAALAGAYDTYKCIPSLEAAVKQAYAATVAAAPQVKYAVFEAALTKAITAMSEVQKVSQPATGAATVAAGAATTAAGAASGAATVAAGGYKV",500,–,–,–,–,–,–,–,–,–,–,–,–,–,–,–,–,2.9e-12,–,–,–
